Paper PMC9407403 (Proceedings of the National Academy of Sciences of the …, 2022)

B1: neutralizing antibody X10 (mouse monoclonal antibody) (antibody, V domains shown)
VH: EVQLQQSGPELVKPGASVKISCKTSGYTFTEYTLHWVKQSHGKSLEWIGGFDPNFGGATYNLKFEDKATLTVDKSSNTAYMELRSLTSEDSAVFYCARGDYGTSYAYFDFWGQGTTLTVSS
VL: DIVLTQSPASLAVSLGQRAAISCRASQSVSTSSHNYVHWYQQRPGQPPKLLIKYASNLECGVPARFSGSGSGTDFTLNIHPVEEEDSAAYYCQHSWEIPYTFGGGTKLEIK
notes: also called nAb X10; cluster 2 representative; source: mouse hybridoma, ascitic fluid, purified (protein A agarose)
B2: neutralizing antibody X17 (mouse monoclonal antibody) (antibody, V domains shown)
VH: QVQLQQSGAELARPGASVKLSCKASGYTFTFYWMQWLKQRPGQGLEWIGAIYPGDGDTRYTQRFKDKATLTADKSSSTAYIQLSSLASEDSAVYYCAGGEYDNYGFDYWGQGTTLTVSS
VL: DIQMTQTTSSLSASLGDRVTISCRASQDISNYLNWYQQKPDGTVKLLIYYTSRLHSGVPSRFSGSGSGTDYSLTISNLEQEDIATYFCQQGTTLPYTFGGGTKLEIK
notes: also called nAb X17; cluster 1 representative; source: mouse hybridoma, ascitic fluid, purified (protein A agarose)

Biological target: T1, SARS-CoV-2 receptor-binding domain (RBD), recombinant antigen (SARS-CoV-2, UniProt P0DTC2)
T1 construct: source: bought: Wantai BioPharm (microplates precoated with recombinant RBD)
Assay: ELISA
Conditions: both partners purified

Binder	binding result
B1	binds
B2	binds
